# Assay results taken from IntAct's records for PubMed 21422170.
# B1: Natural cytotoxicity triggering receptor 3 (Homo sapiens), O14931 (parent)
# chain: MAWMLLLILIMVHPGSCALWVSQPPEIRTLEGSSAFLPCSFNASQGRLAIGSVTWFRDEVVPGKEVRNGTPEFRGRLAPLASSRFLHDHQAELHIRDVRGHDASIYVCRVEVLGLGVGTGNGTRLVVEKEHPQLGAGTVLLLRAGFYAVSFLSVAVGSTVYYQGKCLTWKGPRRQLPAVVPAPLPPPCGSSAHLLPPVPGG
# partner: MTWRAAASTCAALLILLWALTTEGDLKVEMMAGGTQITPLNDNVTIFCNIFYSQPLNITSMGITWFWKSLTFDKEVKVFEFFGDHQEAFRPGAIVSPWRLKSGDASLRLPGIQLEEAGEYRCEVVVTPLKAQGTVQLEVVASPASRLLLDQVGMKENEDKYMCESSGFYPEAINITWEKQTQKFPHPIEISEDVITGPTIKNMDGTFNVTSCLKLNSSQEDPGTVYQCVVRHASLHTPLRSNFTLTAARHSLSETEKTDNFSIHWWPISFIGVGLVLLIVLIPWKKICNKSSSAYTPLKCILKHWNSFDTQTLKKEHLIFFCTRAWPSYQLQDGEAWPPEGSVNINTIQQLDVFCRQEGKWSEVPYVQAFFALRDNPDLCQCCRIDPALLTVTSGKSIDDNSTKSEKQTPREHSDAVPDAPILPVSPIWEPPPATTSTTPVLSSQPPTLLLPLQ
# Variants of: B1
# Conditions: with nr3l1_human NCR3LG1, Q68D85
row,Variant,effect of a mutation on the interaction
1,MAWMLLLILIMVHPGSCALWVSQPPEIRTLEGSSAFLPCSFNASQGRLAIGRVTWFRDEVVPGKEVRNGTPEFRGRLAPLASSRFLHDHQAELHIRDVRGHDASIYVCRVEVLGLGVGTGNGTRLVVEKEHPQLGAGTVLLLRAGFYAVSFLSVAVGSTVYYQGKCLTWKGPRRQLPAVVPAPLPPPCGSSAHLLPPVPGG [S52R],disrupting interaction strength
2,MAWMLLLILIMVHPGSCALWVSQPPEIRTLEGSSAFLPCSFNASQGRLAIGSVTWFRDEVVPGKEVRNGTPEFRGRLAPLASSRAAHDHQAELHIRDVRGHDASIYVCRVEVLGLGVGTGNGTRLVVEKEHPQLGAGTVLLLRAGFYAVSFLSVAVGSTVYYQGKCLTWKGPRRQLPAVVPAPLPPPCGSSAHLLPPVPGG [F85A;L86A],decreasing interaction strength
3,MAWMLLLILIMVHPGSCALWVSQPPEIRTLEGSSAFLPCSFNASQGRLAAGAVTWFRDEVVPGKEVRNGTPEFRGRLAPLASSRFLHDHQAELHIRDVRGHDASIYVCRVEVLGLGVGTGNGTRLVVEKEHPQLGAGTVLLLRAGFYAVSFLSVAVGSTVYYQGKCLTWKGPRRQLPAVVPAPLPPPCGSSAHLLPPVPGG [I50A;S52A],decreasing interaction strength
